This is an account of results in article PMC2966277 (Cell, 2010).

One data set deals with microtubules (UniProt Q6B856 1-445). Nature of the data set: co-sedimentation.
The data set “SEC-MALS” deals with the molecule itself. The experiment in a line: SEC-MALS.
The target of data set [1] is T1, GFP-PRC1-FL (GFP-tagged full-length PRC1, aa 1-620) (human), O43663.
T1 chain: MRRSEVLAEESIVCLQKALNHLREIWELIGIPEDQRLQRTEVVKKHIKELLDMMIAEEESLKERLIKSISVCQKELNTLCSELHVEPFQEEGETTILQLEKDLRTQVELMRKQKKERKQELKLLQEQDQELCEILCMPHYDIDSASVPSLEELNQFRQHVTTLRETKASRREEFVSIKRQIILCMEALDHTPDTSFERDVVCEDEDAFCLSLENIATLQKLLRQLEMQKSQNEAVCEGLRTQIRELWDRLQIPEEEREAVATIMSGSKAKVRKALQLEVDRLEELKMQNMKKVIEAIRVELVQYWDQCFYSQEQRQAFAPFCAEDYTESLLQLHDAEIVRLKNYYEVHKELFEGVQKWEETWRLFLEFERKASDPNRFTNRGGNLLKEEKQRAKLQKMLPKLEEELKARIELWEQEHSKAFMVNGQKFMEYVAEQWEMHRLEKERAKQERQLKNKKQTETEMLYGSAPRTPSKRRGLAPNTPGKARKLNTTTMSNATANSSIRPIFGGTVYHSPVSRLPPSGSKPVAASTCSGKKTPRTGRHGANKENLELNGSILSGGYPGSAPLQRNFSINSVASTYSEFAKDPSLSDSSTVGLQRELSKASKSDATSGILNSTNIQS
Nature of the data set: single-molecule fluorescence intensity analysis. The settings on record: remark: other sources report otherwise.

For data set [2], the target named is T2, PRC1-FL (untagged full-length PRC1) (human), O43663.
T2 chain: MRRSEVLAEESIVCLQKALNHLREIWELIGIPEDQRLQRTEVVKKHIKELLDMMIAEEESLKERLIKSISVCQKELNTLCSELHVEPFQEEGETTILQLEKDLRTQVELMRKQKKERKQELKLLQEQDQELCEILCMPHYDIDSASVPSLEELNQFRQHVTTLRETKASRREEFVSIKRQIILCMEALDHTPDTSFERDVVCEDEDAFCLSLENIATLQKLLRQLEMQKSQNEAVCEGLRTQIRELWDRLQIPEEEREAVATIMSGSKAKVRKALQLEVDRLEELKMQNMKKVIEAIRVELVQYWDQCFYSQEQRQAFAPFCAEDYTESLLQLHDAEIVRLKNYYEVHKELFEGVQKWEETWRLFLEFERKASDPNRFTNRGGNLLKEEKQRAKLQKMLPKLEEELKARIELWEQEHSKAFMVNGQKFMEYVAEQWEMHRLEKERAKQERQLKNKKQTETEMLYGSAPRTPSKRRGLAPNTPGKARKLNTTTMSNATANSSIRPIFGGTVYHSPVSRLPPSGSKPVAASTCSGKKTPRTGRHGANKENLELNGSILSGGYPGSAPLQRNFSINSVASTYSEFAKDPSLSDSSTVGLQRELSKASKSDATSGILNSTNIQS
The settings on record: remark: other sources report otherwise.

B1: PRC1-SC (aa 341-620) (domain or fragment, human, UniProt O43663 341-620, looked up)
chain: LKNYYEVHKELFEGVQKWEETWRLFLEFERKASDPNRFTNRGGNLLKEEKQRAKLQKMLPKLEEELKARIELWEQEHSKAFMVNGQKFMEYVAEQWEMHRLEKERAKQERQLKNKKQTETEMLYGSAPRTPSKRRGLAPNTPGKARKLNTTTMSNATANSSIRPIFGGTVYHSPVSRLPPSGSKPVAASTCSGKKTPRTGRHGANKENLELNGSILSGGYPGSAPLQRNFSINSVASTYSEFAKDPSLSDSSTVGLQRELSKASKSDATSGILNSTNIQS
B1 yielded a Kd with microtubules of 600 ± 300 nM.

B2: PRC1-NSΔC (aa 1-486) (domain or fragment, human, UniProt O43663 1-486, looked up)
chain: MRRSEVLAEESIVCLQKALNHLREIWELIGIPEDQRLQRTEVVKKHIKELLDMMIAEEESLKERLIKSISVCQKELNTLCSELHVEPFQEEGETTILQLEKDLRTQVELMRKQKKERKQELKLLQEQDQELCEILCMPHYDIDSASVPSLEELNQFRQHVTTLRETKASRREEFVSIKRQIILCMEALDHTPDTSFERDVVCEDEDAFCLSLENIATLQKLLRQLEMQKSQNEAVCEGLRTQIRELWDRLQIPEEEREAVATIMSGSKAKVRKALQLEVDRLEELKMQNMKKVIEAIRVELVQYWDQCFYSQEQRQAFAPFCAEDYTESLLQLHDAEIVRLKNYYEVHKELFEGVQKWEETWRLFLEFERKASDPNRFTNRGGNLLKEEKQRAKLQKMLPKLEEELKARIELWEQEHSKAFMVNGQKFMEYVAEQWEMHRLEKERAKQERQLKNKKQTETEMLYGSAPRTPSKRRGLAPNTPGKAR
In the case of B2, in “SEC-MALS”, the “stoichiometry N” value is 2.

B3: PRC1-S (aa 341-466) (domain or fragment, human, UniProt O43663 341-466, looked up)
chain: LKNYYEVHKELFEGVQKWEETWRLFLEFERKASDPNRFTNRGGNLLKEEKQRAKLQKMLPKLEEELKARIELWEQEHSKAFMVNGQKFMEYVAEQWEMHRLEKERAKQERQLKNKKQTETEMLYGS
In the data set with microtubules, B3 returned a Kd of 3300 ± 1800 nM.

B4: GFP-PRC1-FL (GFP-tagged full-length PRC1, aa 1-620), O43663 1-620 (natural protein)
chain: MRRSEVLAEESIVCLQKALNHLREIWELIGIPEDQRLQRTEVVKKHIKELLDMMIAEEESLKERLIKSISVCQKELNTLCSELHVEPFQEEGETTILQLEKDLRTQVELMRKQKKERKQELKLLQEQDQELCEILCMPHYDIDSASVPSLEELNQFRQHVTTLRETKASRREEFVSIKRQIILCMEALDHTPDTSFERDVVCEDEDAFCLSLENIATLQKLLRQLEMQKSQNEAVCEGLRTQIRELWDRLQIPEEEREAVATIMSGSKAKVRKALQLEVDRLEELKMQNMKKVIEAIRVELVQYWDQCFYSQEQRQAFAPFCAEDYTESLLQLHDAEIVRLKNYYEVHKELFEGVQKWEETWRLFLEFERKASDPNRFTNRGGNLLKEEKQRAKLQKMLPKLEEELKARIELWEQEHSKAFMVNGQKFMEYVAEQWEMHRLEKERAKQERQLKNKKQTETEMLYGSAPRTPSKRRGLAPNTPGKARKLNTTTMSNATANSSIRPIFGGTVYHSPVSRLPPSGSKPVAASTCSGKKTPRTGRHGANKENLELNGSILSGGYPGSAPLQRNFSINSVASTYSEFAKDPSLSDSSTVGLQRELSKASKSDATSGILNSTNIQS
B4 displayed a stoichiometry N in data set [1] of 2.

B5: PRC1-FL (untagged full-length PRC1), O43663 1-620 (natural protein)
chain: MRRSEVLAEESIVCLQKALNHLREIWELIGIPEDQRLQRTEVVKKHIKELLDMMIAEEESLKERLIKSISVCQKELNTLCSELHVEPFQEEGETTILQLEKDLRTQVELMRKQKKERKQELKLLQEQDQELCEILCMPHYDIDSASVPSLEELNQFRQHVTTLRETKASRREEFVSIKRQIILCMEALDHTPDTSFERDVVCEDEDAFCLSLENIATLQKLLRQLEMQKSQNEAVCEGLRTQIRELWDRLQIPEEEREAVATIMSGSKAKVRKALQLEVDRLEELKMQNMKKVIEAIRVELVQYWDQCFYSQEQRQAFAPFCAEDYTESLLQLHDAEIVRLKNYYEVHKELFEGVQKWEETWRLFLEFERKASDPNRFTNRGGNLLKEEKQRAKLQKMLPKLEEELKARIELWEQEHSKAFMVNGQKFMEYVAEQWEMHRLEKERAKQERQLKNKKQTETEMLYGSAPRTPSKRRGLAPNTPGKARKLNTTTMSNATANSSIRPIFGGTVYHSPVSRLPPSGSKPVAASTCSGKKTPRTGRHGANKENLELNGSILSGGYPGSAPLQRNFSINSVASTYSEFAKDPSLSDSSTVGLQRELSKASKSDATSGILNSTNIQS
In turn, B5 returned a stoichiometry N in data set [2] of 2.
